Columns and labels:
[1] = molecular target: human NT5E-Biotin (NT5E is GenbankID: NP_002517.1, position: 1-552) (human) (UniProt P21589); test: ELISA on streptavidin-captured human NT5E-Biotin; antibody 1:3 dilution of 0.333 ug/mL; replicate 2
[2] = molecular target: human NT5E-Biotin (NT5E is GenbankID: NP_002517.1, position: 1-552) (human) (UniProt P21589); test: ELISA on streptavidin-captured human NT5E-Biotin; antibody 1:3 dilution of 0.333 ug/mL; replicate 1
[3] = molecular target: human NT5E-Biotin (NT5E is GenbankID: NP_002517.1, position: 1-552) (human) (UniProt P21589); test: ELISA on streptavidin-captured human NT5E-Biotin; antibody 0.333 ug/mL; replicate 2
[4] = molecular target: human NT5E-Biotin (NT5E is GenbankID: NP_002517.1, position: 1-552) (human) (UniProt P21589); test: ELISA on streptavidin-captured human NT5E-Biotin; HRP goat anti-human IgG
[5] = molecular target: human NT5E-Biotin (NT5E is GenbankID: NP_002517.1, position: 1-552) (human) (UniProt P21589); test: ELISA on streptavidin-captured human NT5E-Biotin; antibody 1:81 dilution of 0.333 ug/mL; replicate 2
[6] = molecular target: human NT5E-Biotin (NT5E is GenbankID: NP_002517.1, position: 1-552) (human) (UniProt P21589); test: ELISA on streptavidin-captured human NT5E-Biotin; antibody 0.333 ug/mL; replicate 1
[7] = molecular target: human NT5E-Biotin (NT5E is GenbankID: NP_002517.1, position: 1-552) (human) (UniProt P21589); test: ELISA on streptavidin-captured human NT5E-Biotin; antibody 1:81 dilution of 0.333 ug/mL; replicate 1
[8] = molecular target: human NT5E-Biotin (NT5E is GenbankID: NP_002517.1, position: 1-552) (human) (UniProt P21589); test: ELISA on streptavidin-captured human NT5E-Biotin; antibody 1:243 dilution of 0.333 ug/mL; replicate 2
[9] = molecular target: human NT5E-Biotin (NT5E is GenbankID: NP_002517.1, position: 1-552) (human) (UniProt P21589); test: ELISA on streptavidin-captured human NT5E-Biotin; antibody 0 (blank well); replicate 1
[10] = molecular target: human NT5E-Biotin (NT5E is GenbankID: NP_002517.1, position: 1-552) (human) (UniProt P21589); test: ELISA on streptavidin-captured human NT5E-Biotin; antibody 1:729 dilution of 0.333 ug/mL; replicate 1
[11] = molecular target: human NT5E-Biotin (NT5E is GenbankID: NP_002517.1, position: 1-552) (human) (UniProt P21589); test: ELISA on streptavidin-captured human NT5E-Biotin; antibody 1:729 dilution of 0.333 ug/mL; replicate 2
[12] = molecular target: human NT5E-Biotin (NT5E is GenbankID: NP_002517.1, position: 1-552) (human) (UniProt P21589); test: ELISA on streptavidin-captured human NT5E-Biotin; antibody 1:9 dilution of 0.333 ug/mL; replicate 2
[13] = molecular target: human NT5E-Biotin (NT5E is GenbankID: NP_002517.1, position: 1-552) (human) (UniProt P21589); test: ELISA on streptavidin-captured human NT5E-Biotin; antibody 1:9 dilution of 0.333 ug/mL; replicate 1
[14] = molecular target: human NT5E-Biotin (NT5E is GenbankID: NP_002517.1, position: 1-552) (human) (UniProt P21589); test: ELISA on streptavidin-captured human NT5E-Biotin; antibody 1:243 dilution of 0.333 ug/mL; replicate 1
[15] = molecular target: human NT5E-Biotin (NT5E is GenbankID: NP_002517.1, position: 1-552) (human) (UniProt P21589); test: ELISA on streptavidin-captured human NT5E-Biotin; antibody 0 (blank well); replicate 2
[16] = molecular target: human CD73 expressed on cells (human PBMC CD8+ T cells and CD19+ B cells; endogenous CD73 of MDA-MB-231 and U87-MG cells) (human) (UniProt P21589); test: cell-based or functional assay
[17] = molecular target: human NT5E-Biotin (NT5E is GenbankID: NP_002517.1, position: 1-552) (human) (UniProt P21589); test: ELISA on streptavidin-captured human NT5E-Biotin; antibody 1:27 dilution of 0.333 ug/mL; replicate 1
[18] = molecular target: human NT5E-Biotin (NT5E is GenbankID: NP_002517.1, position: 1-552) (human) (UniProt P21589); test: ELISA on streptavidin-captured human NT5E-Biotin; antibody 1:27 dilution of 0.333 ug/mL; replicate 2

Sequence of human NT5E-Biotin (NT5E is GenbankID: NP_002517.1, position: 1-552) (human) (P21589 27-552 limits assumed, form in doubt): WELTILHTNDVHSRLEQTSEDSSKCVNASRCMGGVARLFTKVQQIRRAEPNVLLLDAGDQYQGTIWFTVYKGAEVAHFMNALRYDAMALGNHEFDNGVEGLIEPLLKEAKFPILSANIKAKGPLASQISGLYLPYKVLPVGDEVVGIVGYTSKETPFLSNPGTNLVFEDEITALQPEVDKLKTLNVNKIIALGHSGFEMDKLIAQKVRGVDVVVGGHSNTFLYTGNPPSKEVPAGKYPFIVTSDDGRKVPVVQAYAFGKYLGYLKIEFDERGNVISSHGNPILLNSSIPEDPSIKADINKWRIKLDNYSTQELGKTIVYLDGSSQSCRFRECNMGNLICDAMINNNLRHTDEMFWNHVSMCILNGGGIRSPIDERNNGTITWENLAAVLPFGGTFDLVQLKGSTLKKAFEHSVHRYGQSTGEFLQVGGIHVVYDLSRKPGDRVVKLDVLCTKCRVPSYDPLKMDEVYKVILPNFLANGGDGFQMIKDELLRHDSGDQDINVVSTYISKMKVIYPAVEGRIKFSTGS
Sequence of human CD73 expressed on cells (human PBMC CD8+ T cells and CD19+ B cells; endogenous CD73 of MDA-MB-231 and U87-MG cells) (human) (P21589 27-549): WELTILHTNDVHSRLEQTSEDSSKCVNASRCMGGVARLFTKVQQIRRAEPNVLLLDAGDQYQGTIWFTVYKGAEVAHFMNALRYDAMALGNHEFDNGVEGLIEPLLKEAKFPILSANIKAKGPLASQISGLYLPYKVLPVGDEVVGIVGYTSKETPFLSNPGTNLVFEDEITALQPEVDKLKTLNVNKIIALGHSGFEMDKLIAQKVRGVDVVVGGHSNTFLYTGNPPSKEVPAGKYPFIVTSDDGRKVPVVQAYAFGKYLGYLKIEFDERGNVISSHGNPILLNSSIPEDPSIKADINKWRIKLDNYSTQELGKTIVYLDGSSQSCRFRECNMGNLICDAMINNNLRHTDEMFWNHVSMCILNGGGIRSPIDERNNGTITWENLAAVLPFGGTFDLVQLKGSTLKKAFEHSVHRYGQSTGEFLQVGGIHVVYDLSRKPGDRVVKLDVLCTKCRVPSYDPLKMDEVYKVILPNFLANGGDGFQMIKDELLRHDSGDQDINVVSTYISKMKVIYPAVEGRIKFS

With “positive control antibody MEDI9447 (Oleclumab)” the OD (450 nm) [1] was 2.6 OD450, the OD (450 nm) [2] was 2.57 OD450 and the OD (450 nm) [3] was 2.53 OD450. The EC50 [4] was 0.048 nM, the OD (450 nm) [5] was 1.03 OD450 and the OD (450 nm) [6] was 2.55 OD450. For the same substance, the OD (450 nm) [7] was 1.06 OD450, the OD (450 nm) [8] was 0.528 OD450 and the OD (450 nm) [9] was 0.121 OD450. The OD (450 nm) [10] was 0.272 OD450, the OD (450 nm) [11] was 0.275 OD450 and the OD (450 nm) [12] was 2.28 OD450. It also gave an OD (450 nm) [13] of 2.27 OD450, an OD (450 nm) [14] of 0.536 OD450 and an OD (450 nm) [15] of 0.116 OD450. The Inhibition rate EC50 (nM): enzyme activity of CD73 expressed by human PBMC membrane (AMP/ATP CellTiter-Glo read-out) [16] was 0.0064 nM, the internalization rate of CD73 in MDA-MB-231 cells after 22 hours (FACS) [16] was 50.5% and the internalization rate of CD73 in U87-MG cells after 22 hours (FACS) [16] was 73.7%. It also gave an OD (450 nm) [17] of 1.77 OD450 and an OD (450 nm) [18] of 1.74 OD450.
